From the RNAGym collection of RNA variant scans (doi:10.1093/molbev/msab373)

B1: Azoarcus group I ribozyme (parent)
chain: GUGCCUUGCGCCGGGAAACCACGCAAGGGAUGGUGUCAAAUUCGGCGAAACCUAAGCGCCCGCCCGGGCGUAUGGCAACGCCGAGCCAAGCUUCGGCGCCUGCGCCGAUGAAGGUGUAGAGACUAGACGGCACCCACCUAAGGCAAACGCUAUGGUGAAGGCAUAGUCCAGGGAGUGGCGAAAGUCACACAAACCGG

Variants of: B1
Assay: reverse-splicing fitness (ratio to wild type); higher = more active; in vitro selection; Mg2+ level not given
Summary of the method: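 An in vitro group I ribozyme library with randomized positions was T7-transcribed and gel-purified. In triplicate, 10 pmol RNA in EPPS pH 7.5 was reacted with 50 pmoles of a 30-nt RNA substrate for 1 h at 37 °C across several added MgCl2 levels (1–48 mM), then stopped with EDTA. Products were reverse transcribed from a substrate-complementary primer, PCR-amplified and sequenced (HiSeq 4000). Fitness is a variant's read proportion after selection over that before, normalised to wild type.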

In order of falling reverse-splicing fitness:
1. A111C A145U C150U  0.731
2. A111C A145G C150U  0.679
3. A111C C150U U176C  0.388
4. A111C C150U U176A  0.339
5. A111C A145G C150A  0.31
6. A111C A145U C150A  0.286
7. A111C A145U C150G  0.219
8. A111C A145G C150G  0.212
9. A111C C150U U176G  0.138
10. A111C A145G C150G U176C  0.13
11. A111C A145C C169U  0.118
12. A111C A120U C169U  0.0792
13. A111C A145G C150G U176A  0.0686
14. A111C A145C C169G  0.0652
15. A111C A120U C169G  0.0632
16. A111G A120C A145C C150G U176C  0.0508
17. A111G A120C A145C C150A U176C  0.0404
18. A111G A120C A145C C150G C169U  0.0377
19. A111G A120C A145C C150A U176A  0.0376
20. A111C A145G C150A C169G U176C  0.0293
21. A111C A145C C169A  0.0285
22. A111C A145C C150A C169G U176A  0.0274
23. A111C C150A C169A U176C  0.0227
24. A111C C150A C169U U176A  0.0226
25. A111C A145U C150U C169G U176C  0.0215
26. A111C A145G C150U C169G U176C  0.021
27. A111C A145U C150A C169G U176C  0.0203
28. A111C A145G C150G U176G  0.0194
29. A111C C150A C169U  0.019
30. A111C A145C C150A C169G U176C  0.0189
31. A111C C150A C169U U176C  0.0184
32. A111C C150A C169A U176A  0.0182
33. A111C A145U C150G C169U  0.0178
34. A111C A145C C150U C169U U176A  0.0174
35. A111C A145G C150A C169G U176A  0.0153
36. A111C A145C C169A U176A  0.0151
37. A111G A120C A145C C150G U176A  0.0148
38. A111C A145U C150U C169G U176A  0.0147
39. A111C A145C C150U C169U U176C  0.0139
40. A111C A145G C150U C169G U176A  0.0138
41. A111C A145U C150G C169U U176C  0.0134
42. A111C A145U C150A C169G U176A  0.0133
43. A111G A120C A145C C150G C169U U176C  0.0127
44. A111C C150A C169G  0.0124
45. A111G A120C A145C C150A U176G  0.0123
46. A111C A120U C150U C169U U176A  0.0122
47. A111C A145C C150G C169U U176C  0.0119
48. A111C A145C C150A C169A U176A  0.0117
49. A111C A120U C150U C169U U176C  0.0116
50. A111C A145C C169A U176C  0.0113
51. A111C C150A C169A  0.0113
52. A111C A145U C150G C169G  0.0101
53. A111C A120U C169G U176C  0.00999
54. A111C A145U C150G C169A  0.00994
55. A111C A145U C150G C169U U176A  0.0095
56. A111C A145C C150A C169A U176C  0.00898
57. A111G A120C A145C C150G C169A  0.00873
58. A111C C150A C169U U176G  0.00825
59. A111C A145C C150U C169U U176G  0.00818
60. A111C A145C C150G C169U U176A  0.00817
61. A111C C150A C169A U176G  0.00777
62. A111G A120C A145C C150G C169U U176A  0.00771
63. A111C A145U C150A C169G U176G  0.00765
64. A111C A145G C150U C169G U176G  0.00741
65. A111C A145U C150U C169G U176G  0.00734
66. A111C A145G C150A C169G U176G  0.00728
67. A111C A145C C150A C169A U176G  0.00714
68. A111C A145C C169A U176G  0.007
69. A111C A145U C150G C169U U176G  0.00683
70. A111G A120C A145C C150G C169G  0.00666
71. A111C C150G C169G U176A  0.00634
72. A111C A145C C150A C169G U176G  0.00627
73. A111C A145C C150G C169U U176G  0.00607
74. A111C C150G C169G U176G  0.00532
75. A111C A120U C169G U176A  0.00529
76. A111C A120U C150G C169G U176A  0.00481
77. A111C A120U C169A  0.00479
78. A111G A120C A145C C150G U176G  0.00421
79. A111C C150G C169G U176C  0.00414
80. A111C A120U C150G C169G U176C  0.0039
81. A111G A120C A145C C150G C169U U176G  0.0038
82. A111C A120U C150U C169U U176G  0.00319
83. A111C A120U C150G C169G U176G  0.00234
84. A111C A120U C169G U176G  0.00154
